Test results from PMC8602864, “The Molecular Assembly State of Drp1 Controls its Association With the Mitochondrial Recruitment Receptors Mff and MIEF1/2” (Frontiers in Cell and Developmental Biology, 2021).

Molecular target: the molecule itself
Assay: cross-linking; in vivo: intact 293T cells (WT; MIEF1/2/Mff-/-; overexpressing MIEF1-V5, MIEF2-V5 or Myc-Mff; or Drp1-/- transfected with untagged Drp1 for 18 h) with 1 mM DSS in PBS with Ca2+/Mg2+, time course or 3 h, room temperature, quenched with 50 mM Tris pH 7.5; reducing SDS-PAGE and Western blot

B1: untagged Drp1-4A (natural protein, human, UniProt O00429 1-736, looked up)
chain: MEALIPVINKLQDVFNTVGADIIQLPQIVVVGTQSSGKSSVLESLVGRDLLPRGTGIVTRRPLILQLVHVSQEDKRKTTGEENGVEAEEWGKFLHTKNKLYTDFDEIRQEIENETERISGNNKGVSPEPIHLKIFSPNVVNLTLVDLPGMTKVPVGDQPKDIELQIRELILRFISNPNSIILAVTAANTDMATSEALKISREVDPDGRRTLAVITKLDLMDAGTDAMDVLMGRVIPVKLGIIGVVNRSQLDINNKKSVTDSIRDEYAFLQKKYPSLANRNGTKYLARTLNRLLMHHIRDCLPELKTRINVLAAQYQSLLNSYGEPVDDKSATLLQLITKFATEYCNTIEGTAKYIETSELCGGARICYIFHETFGRTLESVDPLGGLNTIDILTAIRNATAAAAALFVPEVSFELLVKRQIKRLEEPSLRCVELVHEEMQRIIQHCSNYSTQELLRFPKLHDAIVEVVTCLLRKRLPVTNEMVHNLVAIELAYINTKHPDFADACGLMNNNIEEQRRNRLARELPSAVSRDKSSKVPSALAPASQEPSPAASAEADGKLIQDSRRETKNVASGGGGVGDGVQEPTTGNWRGMLKTSKAEELLAEEKSKPIPIMPASPQKGHAVNLLDVPVPVARKLSAREQRDCEVIERLIKSYFLIVRKNIQDSVPKAVMHFLVNHVKDTLQSELVGQLYKSSLLDDLLTESEDMAQRRKEAADMLKALQGASQIIAEIRETHLW
notes: human Drp1 isoform 1 with the four residues 401GPRP404 mutated to AAAA, untagged; Made by site-directed mutagenesis on untagged Drp1-WT; Copies: ~280 kDa cross-linked product said to correspond to tetramers; also called Drp1-4A mutant
Which “stoichiometry N” value does the source give for B1 here?
The value was 4.
